Results taken from the supplement of paper PMC10126150.
± gives the standard deviation of the averaged measurements.

Tested on: ATP
Experiment: switch fluorescence ratio, 500 uM ATP over buffer (Cy3 cluster intensity, sum of 5 cycles each) (fold (ratio)); higher = stronger signal-on switching upon ATP binding; sequences stand for … in TCGTCGGCAGCGTCAGATGTGTATAAGAGACAGTTTTTTTTTTTTTTTTTTTTTTTTT…TC
Details: aptamer strand: ATP DNA aptamer (quencher-CACCTGGGGGAGTATTGCGGAGGAAGG + anchor), 100 nM annealed; ATP concentration: 500 uM
Method in brief: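 Clusters carrying Cy3-labelled switching strands on a modified Illumina MiSeq flow-cell were annealed to 100 nM quencher-labelled ATP aptamer and imaged in selection buffer. They were imaged again after 15 min with 500 uM ATP at 22 °C, over five buffer/ATP cycles with NaOH stripping and re-annealing in between. For each cluster, the fluorescence ratio is the summed Cy3 intensity of the target cycles divided by that of the buffer cycles, averaged per switch-domain sequence. Clusters outside 100-1000 RFU were left out.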
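Also: ATP exposure 15 min at 22 °C before imaging.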

| Sequence | switch fluorescence ratio |
| --- | --- |
| TTTTATCCA | 1.016 ± 0.0095 |
| AAGTACTTGA | 1.12 ± 0.052 |
| AGGGTCTGCG | 0.981 ± 0.025 |
| GAGTATTTTC | 1.015 ± 0.0065 |
| ATTGAGTTAT | 0.967 ± 0.019 |
| GATGGGTACG | 1.02 ± 0.042 |
| ACATTAGTTA | 1.05 ± 0.033 |
| TTAGGTGGAG | 0.977 ± 0.031 |
| AATATTTTTG | 1 ± 0.019 |
| CGATCACCTG | 1.02 ± 0.063 |
| CAAGGGGTTT | 0.99 ± 0.033 |
| CAGACGGTAC | 3.08 ± 0.089 |
| TTTGTTTGAA | 0.962 ± 0.023 |
| ACTGGTGCAT | 1.04 ± 0.019 |
| GGAGCTGCGT | 1.056 ± 0.0098 |
| AAAGGGATAT | 0.975 ± 0.049 |
| AAAATGGAAA | 1.028 ± 0.0035 |
| ATTCGCGAGG | 0.982 ± 0.027 |
| TAATACTATG | 1.05 ± 0.074 |
| TACTAAGGGG | 1.04 ± 0.041 |
| TTTCGAACGG | 1.03 ± 0.028 |
| GAAGTGAGCG | 1.028 ± 0.0063 |
| CTAATATGGG | 1.04 ± 0.021 |
| GGTAAAGGCG | 0.9621 ± 0.0048 |
| ATGGAACGGA | 1.03 ± 0.027 |
| TGAAATGATG | 0.9977 ± 0.0082 |

| Sequence | switch fluorescence ratio |
| --- | --- |
| CGTTCTCTGT | 0.987 ± 0.029 |
| GGATTTATGT | 0.94526 ± 0.00032 |
| TTTTGGCAGT | 1.09 ± 0.013 |
| CAACGGGCGG | 1 ± 0.019 |
| CGCCGGTTGG | 0.997 ± 0.014 |
| CAAATAATAG | 0.977 ± 0.033 |
| GGCTGCAGCT | 0.992 ± 0.016 |
| GGGTTCCGGC | 1.03 ± 0.098 |
| GAGGCTTAAT | 0.9822 ± 0.0078 |
| ATAAAAATAT | 1.01 ± 0.035 |
| TATGATCTTT | 1.029 ± 0.0052 |
| TTAATAATGG | 0.979 ± 0.026 |
| ACCTTAATTA | 1.1 ± 0.044 |
| ATTTCCTGTG | 1.042 ± 0.0014 |
| GCTTAAATCT | 1.01 ± 0.029 |
| GTTTTTAAGT | 1.03 ± 0.04 |
| GGTGGGTATT | 0.966 ± 0.021 |
| GAGGATATGT | 0.971 ± 0.035 |
| GGGGATCCAT | 1.02 ± 0.026 |
| CTATTATAGT | 0.9844 ± 0.0034 |
| CCGGGGGGGC | 1.32 ± 0.66 |
| GGTGTAAGAG | 0.987 ± 0.031 |
| CATTTGGAAG | 1.02 ± 0.061 |
| ATGTTAACTA | 0.985 ± 0.065 |
| TTAAGAGAGG | 1.01 ± 0.013 |
| CCGGTAAGTC | 1.27 ± 0.026 |

| Sequence | switch fluorescence ratio |
| --- | --- |
| GTTGGCACGA | 1.04 ± 0.018 |
| GTTCGAACGA | 0.9856 ± 0.001 |
| TAAGTTAGTC | 1.02 ± 0.012 |
| AAATAACTAC | 1.08 ± 0.015 |
| TTTGATTAGG | 1.01 ± 0.04 |
| CCCGGGTTAT | 0.9942 ± 0.0075 |
| CTCAGGTGGC | 1.04 ± 0.053 |
| ATACTCAGCC | 1.14 ± 0.041 |
| AAAGGGGTAC | 1.04 ± 0.016 |
| TGAAAATAGT | 0.965 ± 0.029 |
| TGCGAAAATT | 1.01 ± 0.08 |
| CGTAGGGGGT | 1.01 ± 0.03 |
| GTTGGGGGGC | 0.992 ± 0.036 |
| AGGTGTGTGC | 0.97 ± 0.014 |
| AATGAATGAG | 0.971 ± 0.022 |
| ATATTGTGAC | 1.032 ± 0.004 |
| TGGGAGGGCT | 1.05 ± 0.093 |
| TATGTGGGTC | 1.02 ± 0.035 |
| ATTGTTTAGC | 1.01 ± 0.075 |
| TGGGATACTG | 1 ± 0.013 |
| CAGTTGAGAA | 1.02 ± 0.011 |
| AAGTTACGT | 1.06 ± 0.025 |
| TTACCGTGGG | 1.05 ± 0.029 |
| CTAGTCGCGC | 1 ± 0.026 |
| CTGGGGGCAA | 3.2 ± 0.68 |
| GATTTAACGG | 1.01 ± 0.038 |

| Sequence | switch fluorescence ratio |
| --- | --- |
| GGCTGGCAGT | 0.988 ± 0.015 |
| AGGGTATTTC | 1.02 ± 0.012 |
| GGGCAAAGGA | 0.993 ± 0.011 |
| TTACCGGGAT | 1.02 ± 0.031 |
| GGTGTCATAT | 0.984 ± 0.024 |
| CATGGGATGG | 1.01 ± 0.0074 |
| GGCCCAGTAG | 1.14 ± 0.062 |
| TAATGGGAAA | 1.04 ± 0.013 |
| TAGGTGGGGC | 0.996 ± 0.03 |
| CAATTTAGCG | 1.02 ± 0.032 |
| TACTTTGCGG | 1.01 ± 0.063 |
| TAGTTAGTGT | 0.981 ± 0.013 |
| CCTATTAGG | 1 ± 0.011 |
| TTGATAATCT | 1 ± 0.026 |
| ACCTCGTTTC | 1.02 ± 0.018 |
| TAACGCTTTT | 1.002 ± 0.0065 |
| AGATAGGGAG | 0.9786 ± 0.0031 |
| GTTCGTACGT | 0.962 ± 0.082 |
| TAAGGTGGTA | 1.02 ± 0.014 |
| ATGGTCGGTC | 0.989 ± 0.036 |
| GTGAAAGGGG | 1.11 ± 0.17 |
| TTTGCCTCAA | 1.01 ± 0.011 |
| CATTGGACCT | 1.29 ± 0.089 |
| GTTTTAACGG | 1.02 ± 0.029 |
| GAACGTTTGG | 1.04 ± 0.074 |
| CGGGCTATGG | 1 ± 0.023 |

| Sequence | switch fluorescence ratio |
| --- | --- |
| TCGGGGCAG | 0.976 ± 0.033 |
| GCTAGGGCTT | 1.01 ± 0.062 |
| GTTCAAGGCT | 1.0016 ± 0.0002 |
| AGCTTCGGTC | 0.953 ± 0.0098 |
| CATGATGCTG | 1.01 ± 0.033 |
| CATCTTCGCT | 1.0246 ± 7.4e-05 |
| CACGGGAACA | 1.082 ± 0.0053 |
| GTTGTACGAG | 0.9824 ± 0.0058 |
| CACCTGTTTT | 1.02 ± 0.033 |
| AAATTGAAAT | 1.01 ± 0.031 |
| GGTCCTGCAA | 1.76 ± 1.1 |
| GGGGGGCCTC | 0.981 ± 0.015 |
| GGTGACTGCT | 0.9543 ± 0.0024 |
| TTGGGCGCAT | 0.99 ± 0.025 |
| GAAAATAACG | 1.11 ± 0.15 |
| GGTTCCAAGC | 1.06 ± 0.04 |
| CGCTGAGTGC | 1.08 ± 0.034 |
| TTTGTGTGTC | 1 ± 0.025 |
| TTGGCGGGTT | 1.008 ± 0.0062 |
| TGTTAAGGGA | 1 ± 0.02 |
| GGGGATATTC | 1 ± 0.023 |
| TAGGGGTCTG | 1.032 ± 0.0059 |
| CGGCCGTACG | 1.01 ± 0.019 |
| GTTTGCGTTA | 0.962 ± 0.05 |
| TGAAGAAAGG | 0.981 ± 0.02 |
| TTTATTACCC | 1.02 ± 0.025 |

| Sequence | switch fluorescence ratio |
| --- | --- |
| GGCAGTAGTG | 1.002 ± 0.0037 |
| ACCCTGCAGA | 1.06 ± 0.0064 |
| TTTCGGCCAG | 1.13 ± 0.17 |
| GCAGGAATTT | 1 ± 0.038 |
| TCTAGCAGTT | 1.048 ± 0.0014 |
| GGTAACATGG | 1.01 ± 0.021 |
| CAATGCGGTA | 0.976 ± 0.046 |
| ACTTTTCGGT | 1 ± 0.015 |
| CAAGAGGGTG | 1.11 ± 0.15 |
| TGGGGGTACT | 1.01 ± 0.011 |
| TACAGCAGTA | 1.1 ± 0.14 |
| TATTGTAGCT | 1.01 ± 0.044 |
| ATAATTATA | 1.01 ± 0.018 |
| TGCAGATCGG | 0.9927 ± 0.0028 |
| AACAGGGTGG | 1.016 ± 0.0021 |
| CAACTTGAAG | 0.977 ± 0.02 |
| GAGTGTAGTC | 1.06 ± 0.011 |
| GCCTCAGGAT | 0.996 ± 0.068 |
| CATAAAGAGT | 0.996 ± 0.01 |
| TTGATCTCGG | 1.014 ± 0.0061 |
| AAAAGCACGA | 1.09 ± 0.2 |
| CTCATCGGCT | 1.03 ± 0.03 |
| TATGCAGTCA | 1.01 ± 0.029 |
